This note sets out measurements from article PMC10786891, “Massively parallel profiling of RNA-targeting CRISPR-Cas13d”.

Changes are numbered by the printed parent chain. Names and notes keep the numbering of the source.

The labels stand for the following.
T1: EsCas13d, nuclease-dead (Eubacterium siraeum, UniProt B0MS50, R295A;H300A;R849A;H854A)
T1 sequence: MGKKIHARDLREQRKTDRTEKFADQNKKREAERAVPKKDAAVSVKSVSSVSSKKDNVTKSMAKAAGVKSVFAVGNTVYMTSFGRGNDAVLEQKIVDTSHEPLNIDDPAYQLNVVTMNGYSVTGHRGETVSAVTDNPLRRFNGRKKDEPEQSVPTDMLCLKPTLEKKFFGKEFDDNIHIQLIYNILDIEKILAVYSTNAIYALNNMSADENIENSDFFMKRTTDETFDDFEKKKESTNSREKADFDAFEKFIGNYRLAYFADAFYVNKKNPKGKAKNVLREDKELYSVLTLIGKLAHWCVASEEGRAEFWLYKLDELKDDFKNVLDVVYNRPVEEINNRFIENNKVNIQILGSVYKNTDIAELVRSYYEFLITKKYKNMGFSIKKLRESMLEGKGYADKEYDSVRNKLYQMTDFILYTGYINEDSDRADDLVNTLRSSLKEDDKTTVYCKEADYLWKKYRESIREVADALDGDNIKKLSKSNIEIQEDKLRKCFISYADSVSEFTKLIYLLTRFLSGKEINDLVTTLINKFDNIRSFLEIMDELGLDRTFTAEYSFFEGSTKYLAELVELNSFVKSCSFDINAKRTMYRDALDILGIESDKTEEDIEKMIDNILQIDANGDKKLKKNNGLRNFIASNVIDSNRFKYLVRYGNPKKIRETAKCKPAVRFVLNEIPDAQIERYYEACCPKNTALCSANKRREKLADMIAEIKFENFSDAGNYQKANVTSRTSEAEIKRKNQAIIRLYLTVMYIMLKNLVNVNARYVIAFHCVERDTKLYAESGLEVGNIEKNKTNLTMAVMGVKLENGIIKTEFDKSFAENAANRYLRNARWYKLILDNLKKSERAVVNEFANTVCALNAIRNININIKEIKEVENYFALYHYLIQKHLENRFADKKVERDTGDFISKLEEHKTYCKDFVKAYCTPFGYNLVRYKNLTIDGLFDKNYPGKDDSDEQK

B1: target 1 MT 5'PFS UAA 3'PFS ACA (mixed)
RNA 1: CACCCGUGCAAAAAUGCAGGGGUCUAAAACUGAGCGGAUAACCUCUCUAUGG
RNA 2: GGGAAUGGAUCCACAUCUACGAAUUCUAACCAUAGAGAGGUUAUCCGCUCAACAAGAUCGGAAGAGCACACGU
B2: target 1 MT 5'PFS CUA 3'PFS AUU (mixed)
RNA 1: B1 RNA 1
RNA 2: B1 RNA 2 with U27C, A28U, C53U, A54U
B3: target 1 MT 5'PFS GCG 3'PFS CAU (mixed)
RNA 1: B1 RNA 1
RNA 2: B1 RNA 2 with U27G, A28C, A29G, A52C, C53A, A54U
B4: target 1 MT 5'PFS GCG 3'PFS CAC (mixed)
RNA 1: B1 RNA 1
RNA 2: B1 RNA 2 with U27G, A28C, A29G, A52C, C53A, A54C
B5: target 1 MT 5'PFS GUC 3'PFS AAA (mixed)
RNA 1: B1 RNA 1
RNA 2: B1 RNA 2 with U27G, A28U, A29C, C53A
B6: target 1 MT 5'PFS CCG 3'PFS UAU (mixed)
RNA 1: B1 RNA 1
RNA 2: B1 RNA 2 with U27C, A28C, A29G, A52U, C53A, A54U
B7: target 1 MT 5'PFS CUA 3'PFS AUC (mixed)
RNA 1: B1 RNA 1
RNA 2: B1 RNA 2 with U27C, A28U, C53U, A54C
B8: target 1 MT 5'PFS GAC 3'PFS UCA (mixed)
RNA 1: B1 RNA 1
RNA 2: B1 RNA 2 with U27G, A29C, A52U
B9: target 1 MT 5'PFS GCC 3'PFS AAU (mixed)
RNA 1: B1 RNA 1
RNA 2: B1 RNA 2 with U27G, A28C, A29C, C53A, A54U
B10: target 1 MT 5'PFS CCA 3'PFS ACG (mixed)
RNA 1: B1 RNA 1
RNA 2: B1 RNA 2 with U27C, A28C, A54G
B11: target 1 C2G,G17A (mixed)
RNA 1: B1 RNA 1
RNA 2: B1 RNA 2 with U27G, A28U, G35A, C50G, A52C, A54G
B12: target 1 MT 5'PFS UUA 3'PFS AGU (mixed)
RNA 1: B1 RNA 1
RNA 2: B1 RNA 2 with A28U, C53G, A54U
B13: target 1 MT 5'PFS GAC 3'PFS UCC (mixed)
RNA 1: B1 RNA 1
RNA 2: B1 RNA 2 with U27G, A29C, A52U, A54C
B14: target 1 G15A,C21U (mixed)
RNA 1: B1 RNA 1
RNA 2: B1 RNA 2 with U27G, A28U, C31U, G37A, A52C, A54G
B15: target 1 MT 5'PFS ACA 3'PFS CAU (mixed)
RNA 1: B1 RNA 1
RNA 2: B1 RNA 2 with U27A, A28C, A52C, C53A, A54U
B16: target 1 MT 5'PFS GCC 3'PFS AAG (mixed)
RNA 1: B1 RNA 1
RNA 2: B1 RNA 2 with U27G, A28C, A29C, C53A, A54G
B17: target 1 MT 5'PFS GCC 3'PFS AAC (mixed)
RNA 1: B1 RNA 1
RNA 2: B1 RNA 2 with U27G, A28C, A29C, C53A, A54C
B18: target 1 MT 5'PFS CCG 3'PFS UAC (mixed)
RNA 1: B1 RNA 1
RNA 2: B1 RNA 2 with U27C, A28C, A29G, A52U, C53A, A54C
B19: target 1 MT 5'PFS GUC 3'PFS UCC (mixed)
RNA 1: B1 RNA 1
RNA 2: B1 RNA 2 with U27G, A28U, A29C, A52U, A54C
B20: target 1 MT 5'PFS UAA 3'PFS ACG (mixed)
RNA 1: B1 RNA 1
RNA 2: B1 RNA 2 with A54G
B21: target 1 MT 5'PFS UAA 3'PFS ACU (mixed)
RNA 1: B1 RNA 1
RNA 2: B1 RNA 2 with A54U
B22: target 1 MT 5'PFS GUC 3'PFS UCA (mixed)
RNA 1: B1 RNA 1
RNA 2: B1 RNA 2 with U27G, A28U, A29C, A52U
B23: target 1 MT 5'PFS GCC 3'PFS AAA (mixed)
RNA 1: B1 RNA 1
RNA 2: B1 RNA 2 with U27G, A28C, A29C, C53A
B24: target 1 MT 5'PFS GCG 3'PFS CAG (mixed)
RNA 1: B1 RNA 1
RNA 2: B1 RNA 2 with U27G, A28C, A29G, A52C, C53A, A54G
B25: target 1 MT 5'PFS CCA 3'PFS ACU (mixed)
RNA 1: B1 RNA 1
RNA 2: B1 RNA 2 with U27C, A28C, A54U
B26: target 1 MT 5'PFS CUA 3'PFS AUG (mixed)
RNA 1: B1 RNA 1
RNA 2: B1 RNA 2 with U27C, A28U, C53U, A54G
B27: target 1 MT 5'PFS GAC 3'PFS UCG (mixed)
RNA 1: B1 RNA 1
RNA 2: B1 RNA 2 with U27G, A29C, A52U, A54G
B28: target 1 insG 3' of 18,insC 3' of 13 (mixed)
RNA 1: B1 RNA 1
RNA 2: GGGAAUGGAUCCACAUCUACGAAUUCGUACCAUAGGAGAGCGUUAUCCGCUCACCGAGAUCGGAAGAGCACACGU
B29: target 1 MT 5'PFS CUA 3'PFS AUA (mixed)
RNA 1: B1 RNA 1
RNA 2: B1 RNA 2 with U27C, A28U, C53U
B30: target 1 MT 5'PFS CCG 3'PFS UAG (mixed)
RNA 1: B1 RNA 1
RNA 2: B1 RNA 2 with U27C, A28C, A29G, A52U, C53A, A54G
B31: target 1 MT 5'PFS GUC 3'PFS AAG (mixed)
RNA 1: B1 RNA 1
RNA 2: B1 RNA 2 with U27G, A28U, A29C, C53A, A54G
B32: target 1 MT 5'PFS GCG 3'PFS CAA (mixed)
RNA 1: B1 RNA 1
RNA 2: B1 RNA 2 with U27G, A28C, A29G, A52C, C53A
B33: target 1 MT 5'PFS GUC 3'PFS UCG (mixed)
RNA 1: B1 RNA 1
RNA 2: B1 RNA 2 with U27G, A28U, A29C, A52U, A54G
B34: target 1 MT 5'PFS CUC 3'PFS UAA (mixed)
RNA 1: B1 RNA 1
RNA 2: B1 RNA 2 with U27C, A28U, A29C, A52U, C53A
B35: target 1 MT 5'PFS GUC 3'PFS UCU (mixed)
RNA 1: B1 RNA 1
RNA 2: B1 RNA 2 with U27G, A28U, A29C, A52U, A54U
B36: target 1 insA 3' of 4,insU 3' of 4 (mixed)
RNA 1: B1 RNA 1
RNA 2: GGGAAUGGAUCCACAUCUACGAAUUCGUACCAUAGAGAGGUUAUCCGCAUUCACCGAGAUCGGAAGAGCACACGU
B37: target 1 MT 5'PFS CCG 3'PFS UAA (mixed)
RNA 1: B1 RNA 1
RNA 2: B1 RNA 2 with U27C, A28C, A29G, A52U, C53A

The target in this data set is T1, EsCas13d, nuclease-dead. Put plainly: crRNA (strand 1, pre-loaded); Mg2+; 40 mM Tris-HCl pH 7.5, 150 mM NaCl, 6 mM MgCl2, 1 mM DTT, 0.1% Tween-20, 0.2 mg/ml BSA; 25 C; 10 min per concentration, then washed. To be noted: tags: His6-TwinStrep-SUMO cleaved; N-terminal SNAP kept (SNAP-Surface 488); label: 3' end held by stalled T7 RNA polymerase.
In turn, B1 registered a Kd of 43.5 ± 17.5 nM.

Molecule B2 gave a Kd of 6.05 ± 1.65 nM.

B3: the Kd was approximately 29 nM.

Take B4: the Kd was approximately 42 nM.

In the case of B5, the affinity, expressed as Kd, was 38 ± 8 nM.

For B6, binding was characterised by a dissociation constant (Kd) of 3.2 ± 1 nM.

Take B7: the affinity, expressed as Kd, was 14.2 ± 3.1 nM.

B8 registered a Kd of 16.6 ± 3.5 nM.

In turn, B9 returned a Kd of approximately 27 nM.

The molecule B10 yielded a Kd of 3.95 ± 1.6 nM.

Molecule B11 showed a Kd of 25 ± 1.9 nM.

Regarding B12, binding was put at a Kd of 74.5 ± 29 nM.

For B13, the Kd amounted to 23 ± 9.3 nM.

The molecule B14 came in with a Kd of 6.9 ± 0.4 nM.

On to B15, for which the Kd was approximately 20 nM.

B16: the affinity, expressed as Kd, was 28 ± 6.5 nM.

For B17, the Kd amounted to 23 ± 7.5 nM.

For B18, the Kd was approximately 2.85 nM.

With B19, the Kd stood at 11.2 ± 3.1 nM.

The molecule B20 came in with a Kd of 25 ± 4.5 nM.

Turning to B21, binding was put at a Kd of 29 ± 7 nM.

Take B22: binding was put at a Kd of 18.5 ± 5.5 nM.

Regarding B23, binding was put at a Kd of 59.5 ± 19 nM.

B24 showed a Kd of approximately 56.5 nM.

In turn, B25 yielded a Kd of 14 ± 5.5 nM.

Regarding B26, the Kd is 37 ± 10 nM.

As for B27, binding was characterised by a dissociation constant (Kd) of 13.2 ± 1.9 nM.

B28 registered a Kd of 70 ± 24 nM.

In the case of B29, the Kd came out at 7.15 ± 1.5 nM.

In the case of B30, the Kd was determined as 3.35 ± 0.595 nM.

As for B31, the affinity, expressed as Kd, was 20.5 ± 5.5 nM.

B32: the affinity, expressed as Kd, was 49.5 ± 24.5 nM.

Consider B33, for which the Kd was determined as 14.4 ± 2.7 nM.

The molecule B34 yielded a Kd of 59 ± 25 nM.

The molecule B35 had a Kd of 16.1 ± 3.15 nM. This Kd lies about 3.7-fold lower than the previous one.

Regarding B36, the Kd was determined as 12.4 ± 1.6 nM.

B37: the Kd is 14.2 ± 4.6 nM.
